Tests used:
[1] = biological target: T1, epidermal growth factor receptor (EGFR) on tumor cells (A431 epidermoid carcinoma cells); MDA-MB-231 breast … (UniProt P00533 25-1210, limits assumed); experiment: flow cytometry on A431 cells, 10 µg antibody
T1 construct: whole, on cells; Endogenous receptor of the cell lines; also called EGFR overexpressed in a cancer cell line (A431); EGFR in A431 cells

[2] = biological target: T2, epidermal growth factor receptor (EGFR) (Sigma, U.S), purified protein (UniProt P00533 25-1210, limits assumed); experiment: competitive ELISA, EGFR-coated plate with soluble EGFR as competitor (FIG. 9)
T2 construct: also called EGFR antigen
Protocol: 100 μL of EGFR (Sigma, U.S) at a 2 μg/mL dilution in PBS was added to each well of a plate and incubated overnight at 4° C. Each well was washed once with PBST, 300 μL of 1% BSA-PBS solution was added to each well, and stored for 1 hour at room temperature.
2 μg of EGFR was diluted by a two-fold and 10 μL of the diluted EGFR was added to each well of the plate. Then, 90 μL of the antibody diluted to the optimum concentration determined in (1) was added to each well, incubated for 2 hours at room temperature, and washed 4 times with PBST.

binding result [1] | fold lower affinity than C225 [2] [times] | percent of affinity relative to C225 and M96 [2] [%] | Binder
binds |  |  | human antibody ER2 (antibody, V domains shown, also called ER2 antibody) VH: EVQLVESGGGVVQPGGSLRLSCAASGFTFSDYDMSWIRQAPGKGLEWVSGILGGSERSYYRDSVKGRFTISRDNSRKTLYLQMNSLRAEDTAVYYCARHGSPGYTLYAWDYWGQGTTVTVSS VL: DIVMTQTPLSLPVTPGEPASISCRSNQDLTHSNGNTYLEWYLQKPGQSPRLLIYKVSNRFSGVPDRFSGSGAGTDFTLRISRVEAEDVGVYYCMQGTHWPWTFGQGTKVDIKR
 | 2 | ~63 | human antibody ER79 (antibody, V domains shown, also called ER79 antibody) VH: EVQLVESGGGVVQPGGSLRLSCAASGFTFSDYDMSWIRQAPGKGLEWVSGILGGSERSYYRDSVKGRFTISRDNSRKTLYLQMNSLRAEDTAVYYCARHGSPGYTLYAWDYWGQGTTVTVSS VL: DIVMTQTPLSLPVTPGEPASISCRSSQSVDMGIGNNYLEWYLQKPGQSPRLLIYKVSNRFSGVPDRFSGSGAGTDFTLRISRVEAEDVGVYYCMQGTHWPWTFGQGTKVDIKR

— patent US20120231021A1 (GREEN CROSS, published 2012)
